Reference: the Immune Epitope Database (IEDB)
pKd: −log10 of the molar value.

Key:
HLA-B*27:02 = assay: IEDB peptide-MHC binding, purified MHC/direct/fluorescence; filed as Kd, often an IC50 or EC50 that approximates it; ≥ and ≤ were set here for values at or beyond the usual limits of such assays; conditions: source organism: Orthomarburgvirus marburgense
HLA-B*73:01 = assay: as above; conditions: source organism: Marburg virus - Musoke, Kenya, 1980
HLA-B*15:09 = assay: as above; conditions: source organism: Orthomarburgvirus marburgense
HLA-B*48:01 = assay: as above; conditions: source organism: Marburg virus - Musoke, Kenya, 1980
HLA-B*27:05 = assay: as above; conditions: source organism: Marburg virus - Musoke, Kenya, 1980
HLA-A*68:02 = assay: as above; conditions: source organism: Marburg virus - Musoke, Kenya, 1980
HLA-B*08:02 = assay: as above; conditions: source organism: Orthomarburgvirus marburgense
HLA-B*07:02 = assay: as above; conditions: source organism: Marburg virus - Musoke, Kenya, 1980
HLA-A*01:01 = assay: as above; conditions: source organism: Marburg virus - Musoke, Kenya, 1980
HLA-B*15:17 = assay: as above; conditions: source organism: Marburg virus - Musoke, Kenya, 1980
HLA-A*11:01 = assay: as above; conditions: source organism: Marburg virus - Musoke, Kenya, 1980
HLA-B*58:01 = assay: as above; conditions: source organism: Marburg virus - Musoke, Kenya, 1980
HLA-B*15:01 [1] = assay: as above; conditions: source organism: Marburg virus - Musoke, Kenya, 1980
HLA-A*02:01 = assay: as above; conditions: source organism: Marburg virus - Musoke, Kenya, 1980
HLA-A*31:01 = assay: as above; conditions: source organism: Marburg virus - Musoke, Kenya, 1980
HLA-B*57:01 = assay: as above; conditions: source organism: Marburg virus - Musoke, Kenya, 1980
HLA-B*18:01 = assay: as above; conditions: source organism: Marburg virus - Musoke, Kenya, 1980
HLA-A*26:02 = assay: IEDB peptide-MHC binding, purified MHC/competitive/fluorescence; filed as Kd, often an IC50 or EC50 that approximates it; ≥ and ≤ were set here for values at or beyond the usual limits of such assays; conditions: source organism: Orthomarburgvirus marburgense
HLA-A*02:06 = assay: as above; conditions: source organism: Orthomarburgvirus marburgense
HLA-B*51:01 = assay: as above; conditions: source organism: Yersinia pestis Nepal516
HLA-A*32:07 = assay: as above; conditions: source organism: Yersinia pestis Nepal516
HLA-B*40:13 = assay: as above; conditions: source organism: Yersinia pestis Nepal516
HLA-B*83:01 = assay: as above; conditions: source organism: Yersinia pestis Nepal516
HLA-B*15:42 = assay: as above; conditions: source organism: Yersinia pestis Nepal516
HLA-B*45:06 = assay: as above; conditions: source organism: Yersinia pestis Nepal516
HLA-A*32:15 = assay: as above; conditions: source organism: Yersinia pestis Nepal516
HLA-A*68:23 = assay: as above; conditions: source organism: Yersinia pestis Nepal516
HLA-B*35:01 = assay: as above; conditions: source organism: Yersinia pestis Nepal516
HLA-B*15:01 [2] = assay: as above; conditions: source organism: Yersinia pestis Nepal516

KRLLLKLDF
pKd (HLA-B*27:02): 4.91
pKd (HLA-B*73:01): ≤ 4.70
pKd (HLA-B*15:09): ≤ 4.70
pKd (HLA-B*48:01): ≤ 4.70
pKd (HLA-B*27:05): 6.42
pKd (HLA-A*68:02): ≤ 4.70
pKd (HLA-B*08:02): ≤ 4.70
pKd (HLA-B*07:02): ≤ 4.70
pKd (HLA-A*01:01): ≤ 4.70
pKd (HLA-B*15:17): ≤ 4.70
pKd (HLA-A*11:01): ≤ 4.70
pKd (HLA-B*58:01): ≤ 4.70
pKd (HLA-B*15:01 [1]): ≤ 4.70
pKd (HLA-A*02:01): ≤ 4.70
pKd (HLA-A*31:01): ≤ 4.70
pKd (HLA-B*57:01): ≤ 4.70
pKd (HLA-B*18:01): ≤ 4.70
pKd (HLA-A*26:02): ≤ 4.70
pKd (HLA-A*02:06): 5.41

MPFAWQFGF
pKd (HLA-B*51:01): 6.17
pKd (HLA-A*32:07): 8.25
pKd (HLA-B*40:13): 6.64
pKd (HLA-B*83:01): 7.53
pKd (HLA-B*15:42): ≤ 5.30
pKd (HLA-B*45:06): ≤ 5.30
pKd (HLA-A*32:15): 8.49
pKd (HLA-A*68:23): 8.57
pKd (HLA-B*35:01): ≥ 10.00
pKd (HLA-B*15:01 [2]): ≤ 4.70
